Assay results: patent publication US20040180823A1 (BURNHAM INSTITUTE, published 2004)
Ends that are not written are not given here.

Legend:
[1] = molecular target: T1, histidine-tagged mouse EphA2 Fc fusion protein (R&D Systems) (mouse, UniProt Q03145 26-535, limits assumed); assay: SPR (BIAcore 3000), EphA2 Fc coupled to chip, equilibrium binding
T1 construct: Bought; not shown: Fc portion and histidine tag

EphB4 Fc fusion protein = molecular target: T2, EphB4 Fc fusion protein; assay: immobilized peptide capturing Eph receptor Fc (methods of Example 2)
T2 construct: Eph receptor Fc fusion
T2 sequence (P54761 16-539): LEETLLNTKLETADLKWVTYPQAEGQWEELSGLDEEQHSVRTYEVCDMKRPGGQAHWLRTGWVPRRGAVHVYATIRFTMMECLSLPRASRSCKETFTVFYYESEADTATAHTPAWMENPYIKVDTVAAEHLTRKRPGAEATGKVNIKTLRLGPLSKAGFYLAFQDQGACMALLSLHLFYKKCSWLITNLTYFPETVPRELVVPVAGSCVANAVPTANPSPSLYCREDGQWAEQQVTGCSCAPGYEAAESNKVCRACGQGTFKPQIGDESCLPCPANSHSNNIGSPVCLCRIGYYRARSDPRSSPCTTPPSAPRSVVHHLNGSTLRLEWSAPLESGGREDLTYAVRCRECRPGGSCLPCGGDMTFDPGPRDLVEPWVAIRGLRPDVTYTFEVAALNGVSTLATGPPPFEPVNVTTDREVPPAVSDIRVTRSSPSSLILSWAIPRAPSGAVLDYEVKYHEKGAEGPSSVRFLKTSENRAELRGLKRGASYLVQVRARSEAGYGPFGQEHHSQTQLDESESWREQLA
Source text: Bound Eph receptors were detected with anti-human Fc antibody conjugated to alkaline phosphatase (AP) (Promega, Madison, Wis.). […] Substrates were 2,2′-azino-bis(3-ethylbenzthiazoline-6-sulfonic acid) for horseradish peroxidase and p-nitrophenyl phosphate for AP.

T1 sequence (Q03145 26-535 limits assumed): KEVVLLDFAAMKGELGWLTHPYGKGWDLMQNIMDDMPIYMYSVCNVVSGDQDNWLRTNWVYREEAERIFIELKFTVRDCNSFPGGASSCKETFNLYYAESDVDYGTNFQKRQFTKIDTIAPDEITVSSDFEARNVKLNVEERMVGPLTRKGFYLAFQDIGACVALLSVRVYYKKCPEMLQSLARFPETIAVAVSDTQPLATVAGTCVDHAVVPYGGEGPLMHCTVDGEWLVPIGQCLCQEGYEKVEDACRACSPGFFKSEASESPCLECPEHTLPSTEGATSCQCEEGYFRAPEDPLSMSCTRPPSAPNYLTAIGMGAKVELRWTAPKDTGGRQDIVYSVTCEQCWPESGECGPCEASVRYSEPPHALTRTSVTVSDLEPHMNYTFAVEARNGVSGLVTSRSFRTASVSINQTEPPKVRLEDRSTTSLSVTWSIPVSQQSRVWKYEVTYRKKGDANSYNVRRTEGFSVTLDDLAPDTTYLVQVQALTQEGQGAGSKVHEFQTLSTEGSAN

Kd [1] [µM]	fold more EphB4 bound compared to other EphB family receptors (EphB4 Fc fusion protein) [fold]	Binder
0.678	–	SWLAYPGAVSYRGSGSK (also: biotinylated, position not given here) [SWL peptide (synthetic, biotinylated)]
–	4	DALNDWLLFRPWGSGSK (also: biotinylated, position not given here) [DAL synthetic peptide (biotinylated)]
